Data: patent publication US20250257143A1

Biological target: beta gamma receptor (CD122/CD132) for IL2 and IL15 on a reporter cell line (UniProt P14784)
Sequence (P14784 27-551 limits assumed, chain 1 of 2): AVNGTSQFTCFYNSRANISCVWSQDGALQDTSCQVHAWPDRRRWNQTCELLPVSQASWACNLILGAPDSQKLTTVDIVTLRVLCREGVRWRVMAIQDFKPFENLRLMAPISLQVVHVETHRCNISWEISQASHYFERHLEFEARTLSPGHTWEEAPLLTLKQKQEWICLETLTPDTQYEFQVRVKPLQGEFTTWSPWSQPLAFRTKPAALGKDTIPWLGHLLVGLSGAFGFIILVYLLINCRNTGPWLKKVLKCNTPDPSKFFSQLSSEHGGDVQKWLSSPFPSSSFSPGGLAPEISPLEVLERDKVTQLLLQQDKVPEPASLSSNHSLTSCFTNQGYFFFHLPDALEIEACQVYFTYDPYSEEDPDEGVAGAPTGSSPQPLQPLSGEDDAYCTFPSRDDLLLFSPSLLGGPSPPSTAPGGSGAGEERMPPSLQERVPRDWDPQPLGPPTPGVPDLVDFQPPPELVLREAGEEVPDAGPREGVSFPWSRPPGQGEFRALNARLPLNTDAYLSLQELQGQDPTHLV
Sequence (P31785 23-369 limits assumed, chain 2 of 2, further chain): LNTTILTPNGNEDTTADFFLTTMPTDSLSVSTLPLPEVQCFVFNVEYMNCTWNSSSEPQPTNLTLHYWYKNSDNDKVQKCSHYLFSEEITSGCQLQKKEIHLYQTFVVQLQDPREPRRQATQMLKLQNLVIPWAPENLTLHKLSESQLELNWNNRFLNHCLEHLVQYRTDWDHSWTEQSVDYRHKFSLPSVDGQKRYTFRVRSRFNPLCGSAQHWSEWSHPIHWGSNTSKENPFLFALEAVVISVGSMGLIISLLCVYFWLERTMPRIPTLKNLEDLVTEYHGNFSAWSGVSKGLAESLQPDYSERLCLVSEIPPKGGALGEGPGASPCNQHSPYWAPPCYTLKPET

IC50, inhibition of the IL2 (12.5 ng/mL)-driven luciferase signal (RLUs) in βγ-receptor reporter cells: 0.0757 µg/mL
IC50, inhibition of the IL15 (6 ng/mL)-driven luciferase signal (RLUs) in βγ-receptor reporter cells: 0.6 µg/mL
Substance: anti-human CD122 antibody Clone TU27 (BioLegend, Catalog #339015)
